Values quoted from earlier work, collected in patent US20060166927A1, “Compounds that bind to the interferon-gamma, preparation method thereof and medicaments containing same” (priority 2002, published 2006).

B1: γ-IFN: polypeptide comprising, for example, 143 amino acids in humans, which is part of the cytokine family (protein, UniProt P01579 24-161, looked up)
Interferon gamma: QDPYVKEAENLKKYFNAGHSDVADNGTLFLGILKNWKEESDRKIMQSQIVSFYFKLFKNFKDDQSIQKSVETIKEDMNVKFFNSNKKKRDDFEKLTNYSVTDLNVQRKAIHELIQVMAELSPAAKTGKRKRSQMLFRG
- proportion of injected γ-IFN rapidly bound by molecules of heparin/heparan sulphate type (at the surface of the vascular endothelium): approximately 90%
- cytokine disappearing from the circulating blood (intravenous injection, during the first 5 to 10 minutes): 90%
- half-life time (intravenous injection, first phase of biexponential elimination): ~1 min
- inactivation in vivo (γ-IFN alone): rapidly inactivated by proteolytic degradation of its C-terminal end
